# Experiments:
# [1] = target: mouse PD-L1 polypeptide on T cells of wild-type mice (mouse) (UniProt Q9EP73); test: flow cytometry, CD4+ T cells from spleen of wild-type mouse, isotype control in α-hPD-L1 column
# [2] = target: mouse PD-L1 polypeptide on T cells of wild-type mice (mouse) (UniProt Q9EP73); test: flow cytometry, CD8+ T cells from spleen of wild-type mouse, isotype control in α-hPD-L1 column
# [3] = target: humanized PD-L1 polypeptide (human portion and endogenous mouse portion) on T cells of mice homozygous for the humanized CD274 gene of Example 1 (human; mouse) (UniProt Q9NZQ7); test: flow cytometry, CD4+ T cells (CD3+CD4+) from spleen of humanized CD274 mouse, isotype control in α-hPD-L1 column
# Chain of UniProt Q9NZQ7 (Q9NZQ7 other isoform, or with tags, fused parts or gaps limits assumed): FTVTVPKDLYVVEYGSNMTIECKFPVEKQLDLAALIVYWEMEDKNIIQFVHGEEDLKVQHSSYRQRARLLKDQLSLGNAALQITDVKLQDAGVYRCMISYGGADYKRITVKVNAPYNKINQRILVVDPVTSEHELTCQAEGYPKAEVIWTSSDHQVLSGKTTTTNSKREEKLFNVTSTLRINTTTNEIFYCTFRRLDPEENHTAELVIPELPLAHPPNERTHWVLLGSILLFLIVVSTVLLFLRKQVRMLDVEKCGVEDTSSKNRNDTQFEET
# [4] = target: humanized PD-L1 polypeptide (human portion and endogenous mouse portion) on T cells of mice homozygous for the humanized CD274 gene of Example 1 (human; mouse) (UniProt Q9NZQ7); test: flow cytometry, CD8+ T cells (CD3+CD8+) from spleen of humanized CD274 mouse, isotype control in α-hPD-L1 column
# [5] = target: mouse PD-L1 polypeptide on T cells of wild-type mice (mouse) (UniProt Q9EP73); test: flow cytometry, CD4+ T cells from spleen of wild-type mouse, unstimulated
# [6] = target: mouse PD-L1 polypeptide on T cells of wild-type mice (mouse) (UniProt Q9EP73); test: flow cytometry, CD8+ T cells from spleen of wild-type mouse, unstimulated
# [7] = target: humanized PD-L1 polypeptide (human portion and endogenous mouse portion) on T cells of mice homozygous for the humanized CD274 gene of Example 1 (human; mouse) (UniProt Q9NZQ7); test: flow cytometry, CD4+ T cells from spleen of humanized CD274 mouse, unstimulated
# [8] = target: humanized PD-L1 polypeptide (human portion and endogenous mouse portion) on T cells of mice homozygous for the humanized CD274 gene of Example 1 (human; mouse) (UniProt Q9NZQ7); test: flow cytometry, CD8+ T cells from spleen of humanized CD274 mouse, unstimulated
# [9] = target: mouse PD-L1 polypeptide on T cells of wild-type mice (mouse) (UniProt Q9EP73); test: flow cytometry, CD4+ T cells from spleen of wild-type mouse, stimulated with anti-CD3/anti-CD28 for 72 hours
# [10] = target: mouse PD-L1 polypeptide on T cells of wild-type mice (mouse) (UniProt Q9EP73); test: flow cytometry, CD8+ T cells from spleen of wild-type mouse, stimulated with anti-CD3/anti-CD28 for 72 hours
# [11] = target: humanized PD-L1 polypeptide (human portion and endogenous mouse portion) on T cells of mice homozygous for the humanized CD274 gene of Example 1 (human; mouse) (UniProt Q9NZQ7); test: flow cytometry, CD4+ T cells from spleen of humanized CD274 mouse, stimulated with anti-CD3/anti-CD28 for 72 hours
# [12] = target: humanized PD-L1 polypeptide (human portion and endogenous mouse portion) on T cells of mice homozygous for the humanized CD274 gene of Example 1 (human; mouse) (UniProt Q9NZQ7); test: flow cytometry, CD8+ T cells from spleen of humanized CD274 mouse, stimulated with anti-CD3/anti-CD28 for 72 hours
# [13] = target: mouse PD-L1 polypeptide on T cells of wild-type mice (mouse) (UniProt Q9EP73); test: flow cytometry, CD4+ T cells from spleen of wild-type mouse, isotype control in α-mPD-L1 column
# [14] = target: mouse PD-L1 polypeptide on T cells of wild-type mice (mouse) (UniProt Q9EP73); test: flow cytometry, CD8+ T cells from spleen of wild-type mouse, isotype control in α-mPD-L1 column
# [15] = target: humanized PD-L1 polypeptide (human portion and endogenous mouse portion) on T cells of mice homozygous for the humanized CD274 gene of Example 1 (human; mouse) (UniProt Q9NZQ7); test: flow cytometry, CD4+ T cells (CD3+CD4+) from spleen of humanized CD274 mouse, isotype control in α-mPD-L1 column
# [16] = target: humanized PD-L1 polypeptide (human portion and endogenous mouse portion) on T cells of mice homozygous for the humanized CD274 gene of Example 1 (human; mouse) (UniProt Q9NZQ7); test: flow cytometry, CD8+ T cells (CD3+CD8+) from spleen of humanized CD274 mouse, isotype control in α-mPD-L1 column
# Chain of UniProt Q9EP73 (Q9EP73 19-290): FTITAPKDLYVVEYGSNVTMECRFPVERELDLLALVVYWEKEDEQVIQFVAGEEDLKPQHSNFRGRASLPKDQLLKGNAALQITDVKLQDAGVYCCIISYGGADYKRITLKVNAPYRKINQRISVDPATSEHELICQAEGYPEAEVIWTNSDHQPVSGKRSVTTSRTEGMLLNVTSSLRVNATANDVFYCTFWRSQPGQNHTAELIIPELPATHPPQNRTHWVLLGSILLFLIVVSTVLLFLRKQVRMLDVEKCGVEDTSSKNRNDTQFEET
Mean Fluorescence Intensity [1],Mean Fluorescence Intensity [2],Mean Fluorescence Intensity [3],Mean Fluorescence Intensity [4],Mean Fluorescence Intensity [5],Mean Fluorescence Intensity [6],Mean Fluorescence Intensity [7],Mean Fluorescence Intensity [8],Mean Fluorescence Intensity [9],Mean Fluorescence Intensity [10],Mean Fluorescence Intensity [11],Mean Fluorescence Intensity [12],Mean Fluorescence Intensity [13],Mean Fluorescence Intensity [14],Mean Fluorescence Intensity [15],Mean Fluorescence Intensity [16],Substance
-58,64,-55,78,–,–,–,–,–,–,–,–,–,–,–,–,Isotype control (α-hPD-L1 columns of Table 5) (antibody)
–,–,–,–,538,712,61,160,2800,3170,155,276,–,–,–,–,"anti-mouse PD-L1 antibody, clone 10F.9G2 (eBioscience)"
–,–,–,–,-45,62,114,271,22,113,457,384,–,–,–,–,"anti-human PD-L1 antibody, clone MIH1 (BD Biosciences)"
–,–,–,–,–,–,–,–,–,–,–,–,-39,64,-52,84,Isotype control (α-mPD-L1 columns of Table 5) (antibody)

# Source: patent US20210105983A1
